T1: recombinant human LAG-3-his protein (Novoprotein) (human, UniProt P18627 23-450)
T1 construct: Bought; also called huLAG-3; not shown: His tag
T1 sequence (looked up): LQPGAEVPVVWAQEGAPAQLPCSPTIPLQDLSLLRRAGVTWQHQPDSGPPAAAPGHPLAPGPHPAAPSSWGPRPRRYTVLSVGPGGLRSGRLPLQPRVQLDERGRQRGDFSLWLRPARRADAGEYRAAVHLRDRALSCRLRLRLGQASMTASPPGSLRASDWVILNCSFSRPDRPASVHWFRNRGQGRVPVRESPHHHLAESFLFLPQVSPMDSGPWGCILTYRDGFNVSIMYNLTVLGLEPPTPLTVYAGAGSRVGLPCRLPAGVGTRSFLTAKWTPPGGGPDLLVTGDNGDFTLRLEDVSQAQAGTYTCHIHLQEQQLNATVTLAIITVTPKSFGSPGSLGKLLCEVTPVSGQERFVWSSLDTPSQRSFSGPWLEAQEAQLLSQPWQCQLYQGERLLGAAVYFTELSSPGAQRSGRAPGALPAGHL

B1: HumAb703-12 (antibody, human IgG1, kappa, L234A L235A, V domains shown)
VH: EVQLQESGPGLVKPSETLSLTCAVSGYSISTGYYWNWIRQPPGKGLEWIGYMSYDGNNNYNPSLKNRITISRDTSKNQFSLKLSSVTAADTAVYYCARDRGTTILGGTMDYWGQGTTVTVSS
VL: DIQMTQSPSSLSASVGDRVTITCKASQSVSNDVAWYQQKPGKAPKLLIYYAFYRYTGVPDRFSGSGYGTDFTLTISSLQPEDFATYYCQQDYSSPWTFGGGTKVEIKR
notes: humanized mAb703
B2: HumAb703-11 (antibody, human IgG1, kappa, L234A L235A, V domains shown)
VH: B1 VH with I68V
VL: B1 VL
notes: humanized mAb703
B3: HumAb703-13 (antibody, human IgG1, kappa, L234A L235A, V domains shown)
VH: B1 VH with I49M
VL: B1 VL
notes: humanized mAb703
B4: HumAb703-18 (antibody, human IgG1, kappa, L234A L235A, V domains shown)
VH: B1 VH with I49M
VL: B1 VL with A43S, Y87F
notes: humanized mAb703
B5: HumAb703-22 (antibody, human IgG1, kappa, L234A L235A, V domains shown)
VH: B1 VH
VL: B1 VL with D1S, Q3V, A43S, S63T, Y87F
notes: humanized mAb703; also called HurnAb703-22
B6: mAb703c (antibody, V domains shown)
VH: DVQLQESGPGLVKPSQSLSLTCSVTGYSITTGYYWNWIRQFPGNKLEWMGYMSYDGNNNYNPSLKNRISITRDTSKNQFLLRLNSVTTEDTATYFCARDRGTTILGGTMDYWGQGTSVTVS
VL: SIVMTQTPKFLFVSAGDRVTIACKASQSVSNDVAWYQQKPGQSPKLLIYYAFYRYTGVPDRFTGSGYGTDFTFTISTVQAEDLAVYFCQQDYSSPWTFGGGTKLEIK
B7: HumAb713-6 (antibody, human IgG1, kappa, L234A L235A, V domains shown)
VH: EVQLVESGGGLVQPGGSLRLSCAASGFTFSDYGMHWVRQAPGKGLEWVSYISSGSYTIYYADTVKGRFTISRDNAKNSLYLQMNSLRDEDTAVYYCAKRGGSSHVNVMDYWGQGTTVTVSS
VL: DIQMTQSPSSLSASVGDRVTITCKASDHINNWLAWYQQKPGKAPKLLIYGATSLETGVPSRFSGSGSGTDYTFTISSLQPEDIATYYCQQYWSPPYTFGGGTKVEIKR
notes: humanized mAb713; also called HurnAb713-6
B8: HumAb713-12 (antibody, human IgG1, kappa, L234A L235A, V domains shown)
VH: B7 VH with F29S, S49A
VL: B7 VL with Y49S
notes: humanized mAb713
B9: HumAb713-4 (antibody, human IgG1, kappa, L234A L235A, V domains shown)
VH: B7 VH with F29S, S49A
VL: B7 VL with Y71F
notes: humanized mAb713
B10: HumAb713-10 (antibody, human IgG1, kappa, L234A L235A, V domains shown)
VH: B7 VH
VL: B7 VL with Y49S
notes: humanized mAb713
B11: HumAb713-5 (antibody, human IgG1, kappa, L234A L235A, V domains shown)
VH: B7 VH with K98R
VL: B7 VL
notes: humanized mAb713
B12: HumAb713-2 (antibody, human IgG1, kappa, L234A L235A, V domains shown)
VH: B7 VH
VL: B7 VL with Y71F
notes: humanized mAb713
B13: HumAb713-9 (antibody, human IgG1, kappa, L234A L235A, V domains shown)
VH: B7 VH with K98R
VL: B7 VL with Y49S
notes: humanized mAb713
B14: HumAb713-8 (antibody, human IgG1, kappa, L234A L235A, V domains shown)
VH: B7 VH with F29S, S49A
VL: B7 VL
notes: humanized mAb713; also called HurnAb713-8
B15: HumAb713-13 (antibody, human IgG1, kappa, L234A L235A, V domains shown)
VH: B7 VH with K98R
VL: B7 VL with Y49S, T69K
notes: humanized mAb713
B16: FIT107-1-7a-1 (bispecific antibody, human IgG1, kappa, L234A L235A)
chain 1: not shown
chain 2: EVQLVESGGGLVQPGGSLRLSCAASGFTSSDYGMHWVRQAPGKGLEWVSYISSGSYTIYYADTVKGRFTISRDNAKNSLYLQMNSLRDEDTAVYYCAKRGGSSHVNVMDYWGQGTTVTVSSASTKGPSVFPLAPSSKSTSGGTAALGCLVKDYFPEPVTVSWNSGALTSGVHTFPAVLQSSGLYSLSSVVTVPSSSLGTQTYICNVNHKPSNTKVDKKVEPKSC
chain 3: DIQMTQSPSSLSASVGDRVTITCRASQEISGYLSWLQQKPGGAIKRLIYAASALDSGVPSRFSGSRSGSDYTLTISSLQPEDFADYYCLQYASYPLTFGQGTKLELKRTVAAPSVFIFPPSDEQLKSGTASVVCLLNNFYPREAKVQWKVDNALQSGNSQESVTEQDSKDSTYSLSSTLTLSKADYEKHKVYACEVTHQGLSSPVTKSFNRGEC
notes: FIT-Ig hexamer; outer anti-PD-1 (HumAb713-7), inner anti-LAG-3 (HumAb747V-67 with G55A)
B17: FIT107-1-7a-2 (bispecific antibody, human IgG1, kappa, L234A L235A)
chain 1: not shown
chain 2: B16 chain 2
chain 3: B16 chain 3 with S56L
notes: FIT-Ig hexamer; outer anti-PD-1 (HumAb713-7), inner anti-LAG-3 (HumAb747V-72 with G55A)
B18: FIT107-1-7a-3 (bispecific antibody, human IgG1, kappa, L234A L235A)
chain 1: not shown
chain 2: B16 chain 2
chain 3: B16 chain 3 with A53T
notes: FIT-Ig hexamer
B19: FIT107-1-7b-2 (bispecific antibody, human IgG1, kappa, L234A L235A)
chain 1: not shown
chain 2: EVQLVQSGAEVKKPGATVKLSCTASGFNIKDDYMHWVKQRPEQGLDWIGWIVPRNANTVYASKFQGKATITADTSTNTAYLELSSLRSEDTAVYYCTVYGDYWGQGTTVTVSSASTKGPSVFPLAPSSKSTSGGTAALGCLVKDYFPEPVTVSWNSGALTSGVHTFPAVLQSSGLYSLSSVVTVPSSSLGTQTYICNVNHKPSNTKVDKKVEPKSC
chain 3: not shown
notes: FIT-Ig hexamer; outer anti-LAG-3 (HumAb747V-72 with G55A), inner anti-PD-1 (HumAb713-7)

Experimental findings from patent US20210188980A1 (SHANGHAI EPIMAB BIOTHERAPEUTICS, published 2021) are described below.

Changes are numbered by the printed parent chain. In names and notes the source's numbering stands.

What is called Kd is the constant that tells how readily two partners part at equilibrium. Usually koff stands for the first-order rate constant of dissociation. Usually kon stands for a measure of how fast the partners come together. A word on the IC50: it is the concentration needed to halve the response being measured.

T3 sequence (Q15116 25-288): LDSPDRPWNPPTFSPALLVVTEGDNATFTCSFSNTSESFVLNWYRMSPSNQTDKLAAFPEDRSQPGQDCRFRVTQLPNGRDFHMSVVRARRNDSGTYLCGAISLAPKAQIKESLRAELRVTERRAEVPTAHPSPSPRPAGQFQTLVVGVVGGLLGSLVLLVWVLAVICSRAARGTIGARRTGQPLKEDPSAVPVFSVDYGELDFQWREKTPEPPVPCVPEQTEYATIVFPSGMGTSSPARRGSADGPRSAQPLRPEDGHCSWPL

For one test, the target named is T2, human PD-1-His protein (human, UniProt Q15116 25-167, limits assumed).
T2 construct: also called huPD-1; not shown: His tag
T2 sequence (Q15116 25-167 limits assumed): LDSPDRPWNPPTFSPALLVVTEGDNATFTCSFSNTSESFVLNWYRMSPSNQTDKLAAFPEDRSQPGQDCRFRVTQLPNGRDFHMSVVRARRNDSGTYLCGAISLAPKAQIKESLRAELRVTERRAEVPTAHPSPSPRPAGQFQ
Nature of the test: SPR Biacore. In general terms: Surface plasmon resonance follows binding to a sensor surface in real time, without labels.
Take B1: the affinity, expressed as Kd, was 9 nM; the off-rate (koff) was 0.00159 s⁻¹; the kon worked out at 177000 M⁻¹ s⁻¹.

Molecule B2 displayed a dissociation constant (Kd) of 9.37 nM, a koff of 0.00176 s⁻¹ and an on-rate constant (kon) of 187000 M⁻¹ s⁻¹.

As for B3, the dissociation constant Kd was determined as 10.6 nM, the off-rate constant (koff) was 0.00154 s⁻¹ and the kon was 145000 M⁻¹ s⁻¹.

On to B4, for which the affinity, expressed as Kd, was 18.9 nM; the koff came to 0.00124 s⁻¹; the on-rate constant (kon) is 65700 M⁻¹ s⁻¹.

As for B5, binding was put at a Kd of 6.94 nM, the koff was found to be 0.00159 s⁻¹ and the kon was 229000 M⁻¹ s⁻¹.

B6: binding was characterised by a dissociation constant (Kd) of 2.68 nM, the koff turned out to be 0.000966 s⁻¹ and the on-rate (kon) came out at 359000 M⁻¹ s⁻¹.

Another test addresses T3, human PD-1 expressed on cells (human, UniProt Q15116 25-288).
T3 construct: whole, on cells; also called CHO-K1/huPD-1; CHO-K1-hPD-1 cells
Nature of the test: cell RBA FACS; competitor PD-L1/Fc.
Molecule B7 displayed an IC50 of 1.04 nM.

Consider B8, for which the IC50 stood at 0.94 nM.

With B9, the concentration for half-maximal inhibition (IC50) stood at 1.06 nM.

Take B10: the IC50 came to 0.8 nM.

B11 yielded an IC50 of 0.91 nM.

As to B12, the IC50 was found to be 1.71 nM.

Take B13: the 50% inhibitory concentration (IC50) was 1.2 nM.

The molecule B14 yielded a concentration for half-maximal inhibition (IC50) of 1.05 nM.

In turn, B15 displayed an IC50 of 0.7 nM.

Another test concerns the target T3, human PD-1 expressed on cells. Nature of the test: cell RBA FACS; competitor PD-L2/Fc.
The molecule B7 yielded a concentration for half-maximal inhibition (IC50) of 1.46 nM.

With B8, the IC50 worked out at 1.59 nM.

The molecule B9 returned a half-inhibitory concentration (IC50) of 2.24 nM.

In the case of B10, the IC50 was determined as 1.23 nM.

B11 yielded a 50% inhibitory concentration (IC50) of 2.95 nM.

Consider B12, for which the IC50 amounted to 3.13 nM.

Turning to B13, the IC50 worked out at 2 nM.

B14: the IC50 was 1.91 nM.

In turn, B15 showed an IC50 of 2.13 nM.

In a further test the target is T1, recombinant human LAG-3-his protein …. Kind of test: BLI Octet, FIT-Ig captured, antigen analyte. In general terms: In BLI a coated tip is dipped into the sample, and binding shifts an interference pattern.
B16: the Kd is 0.732 nM, the koff was found to be 0.000124 s⁻¹ and the kon turned out to be 169000 M⁻¹ s⁻¹.

B17: the dissociation constant (Kd) amounted to 1.22 nM, the koff is 0.000128 s⁻¹ and the association rate constant (kon) is 105000 M⁻¹ s⁻¹.

B18: the Kd stood at 1.47 nM, the dissociation rate constant (koff) came out at 0.000134 s⁻¹ and the on-rate (kon) came out at 91000 M⁻¹ s⁻¹.

On to B19, for which the equilibrium dissociation constant (Kd) is 1.41 nM, the koff amounted to 0.000246 s⁻¹ and the on-rate (kon) was 174000 M⁻¹ s⁻¹.

The target of a further test is T2, human PD-1-His protein. Nature of the test: BLI Octet, FIT-Ig captured, antigen analyte.
With B16, the Kd turned out to be 3.04 nM, the koff was determined as 0.000538 s⁻¹ and the on-rate constant (kon) came out at 177000 M⁻¹ s⁻¹.

On to B17, for which the Kd came to 3.17 nM, the koff was 0.000526 s⁻¹ and the on-rate (kon) is 166000 M⁻¹ s⁻¹.

As to B18, the dissociation constant (Kd) is 3.01 nM, the off-rate (koff) came to 0.000628 s⁻¹ and the on-rate constant (kon) is 208000 M⁻¹ s⁻¹.

Molecule B19 came in with a Kd of 7.9 nM, an off-rate (koff) of 0.000827 s⁻¹ and a kon of 105000 M⁻¹ s⁻¹.
